According to patent US20020090696:

What was measured:
[1] = target: GST-2.5 fusion protein [GST: P08515]

B1: Rat SAPKβ (protein)
chain: MSLHFLYYCSEPTLDVKIAFCQGFDKHVDVSSVVKHYNMSKSKVDNQFYSVEVGDSTFTVLKRYQNLKPIGSGAQGIVCAAYDAVLDRNVAIKKLSRPFQNQTHAKRAYRELVLMKCVNHKNIISLLNVFTPQKTLEEFQDVYLVMELMDANLCQVIQMELDHERMSYLLYQMLCGIKHLHSAGIIHRDLKPSNIVVKSDCTLKILDFGLARTAGTSFMMTPYVVTRYYRAPEVILGMGYKENVDIWSVGCIMGEMVRHKILFPGRDYIDQWNKVIEQLGTPCPEFMKKLQPTVRNYVENRPKYAGLTFPKLFPDSLFPADSEHNKLKASQARDLLSKMLVIDPAKRISVDDALQHPYINVWYDPAEVEAPPPQIYDKQLDEREHTIEEWKELIYKEVMNSEEKTKNGVVKGQPSPSGAAVNSSESLPPSSSVNDISSMSTDQTLASDTDSSLEASAGPLGCCR
- phosphorylation of GST-c-Jun in a kinase reaction with c-Jun and rSAPKβ (GST [GST: P08515]): GST alone shows no effect.
- in vitro kinase assay, phosphorylation of protein 2.5 [1]: Rat SAPKβ ... phosphorylates protein 2.5
- in vitro phosphorylation assay [1]: hJIP1/IB1 is a substrate for JNK3 in the same in vitro phosphorylation assay
- in vitro phosphorylation of a GST c-Jun fusion protein [1]: this protein greatly reduces phosphorylation of a GST c-Jun fusion protein in a concentration dependent manner
- phosphorylation of GST-c-Jun in a kinase reaction with c-Jun and rSAPKβ [1]: protein 2.5 shows a dose-dependent inhibition of phosphorylation of GST-c-Jun
